Data from publication PMC9481538, “The interaction between LC8 and LCA5 reveals a novel oligomerization function of LC8 in the ciliary-centrosome system” (Scientific Reports, 2022).
Numbering of substitutions follows the chain as printed.

Legend:
[1] = negative staining transmission electron microscopy of sLCA5-LC8 complexes; type: physicochemical
Method: For TEM negative staining experiments, a JEOL JEM-1011 (JEOL Ltd., Tokyo, Japan) electron microscope was used. The purified LCA5-LC8 complexes or LC8 or LCA5 forms alone were put together by using LCA5-WT or the single or double mutants at 30 μM and LC8 at 150 μM concentration in a buffer of 20 mM Tris 70 mM NaCl, pH 7.4, and incubated at 37 °C for 1 h. The complexes were diluted to a final 0.2 mg/ml concentration in the buffer and applied to 300 mesh formvar/carbon-coated copper grids (SPI Inc., USA). After 2 min of incubation the surplus was removed by filter paper and 1% uranyl acetate was applied for 1 min as negative staining. Images were taken around the middle of the grid at 5000, 50,000, 150,000 and 300,000-fold magnification. The collected data was analyzed by Fiji ImageJ software, and the statistical analysis was carried out in Origin 8 software.

GST-fused LC8 = assay: GST pull-down of LC8 and sLCA5; type: binding; conditions: GST-LC8 bait, MBP-, 6x-His-fused sLCA5 prey, PBS, 1 mM DTT, room temperature; result in words
Method: For the pull-down experiments, GST-fused LC8 was used as bait, and MBP-, 6x-His-fused LCA5 variants as prey. For controls, GST and MBP were used. Proteins were expressed in 100 ml cultures of E. coli BL21 (DE3) Rosetta cells as described above. Cells were harvested, resuspended in 5 ml PBS supplemented with 1 mg/ml lysozyme and 1 mM DTT, sonicated and clarified by centrifugation. 20 μl of Glutathione Sepharose 4B (Macherey–Nagel) (75%) resin was used for each experiment. Baits were incubated with the resin for 1 h at room temperature, then washed with PBS supplemented with 1 mM DTT. Prey proteins were added and incubated for one hour. The beads were washed and eluted by boiling in a 2 × SDS sample buffer and analyzed in tricine SDS page according to the protocol of Schagger et al[43].

CD thermal denaturation = type: physicochemical; conditions: CD at 222 nm, 10–80 °C; for melting temperature Tm: 1 °C/min, two-state fit, without or with LC8 as label shows; for increase in melting temperature on LC8 binding: sLCA5 in complex with LC8 vs without
Method: (§1) CD experiments were carried out on a Jasco J-810 spectropolarimeter using a 1 mm quartz cuvette. For the spectra of the individual constructs, 8 scans were recorded and averaged between 200 nm or 190 nm and 260 nm (in continuous scanning mode, data pitch: 0.2 nm, scanning speed: 50 nm/min, response: 2 s, bandwidth: 2 nm). sLCA5-WT and the mutants were measured at 0.1 mg/ml concentration. 1.2 μM LCA5 and 6 μM LC8 were complexed and analyzed. The spectra of LC8 at a concentration of 6 μM was recorded under the same experimental conditions as described before and subtracted from the individual CD spectra of the sLCA5-LC8 complexes. The baseline subtracted data were evaluated using the BeStSel web-server (http://bestsel.elte.hu/index.php)[46],[47]. Thermal denaturation experiments were recorded at 222 nm between 10 and 80 °C using 1 °C/min heating rate. The thermal denaturation profile was fitted according to the Gibbs–Helmholtz equation assuming a two-state model as described by Shih et al[48]. After fitting, the curves were normalized by the following equation. y=-m^∘-An-T∗mn/Ad-An+md-mnT-1 where y is the ratio of native and unfolded state, An and Ad are the initial values of the Gibbs–Helmholtz equation belong to the native and denatured state, mn and md are the slopes belong to the An and Ad values, m° is the measured CD value in millidegree and T is the temperature in °C.

[2] = analytical gel filtration; type: physicochemical
Method: (§2) For analytical gel filtration a Superose 6 Increase 10/300 (Cytiva) was used with an effective resolution between 5–5000 kDa range and a void volume above 5000 kDa. The column was equilibrated in DPBS supplemented with 200 μM TCEP. The calibration curve was fitted on the chromatogram of gel filtration standard mix (BioRad) with the addition of Dextran Blue to determine the void volume. 100 μl of LCA5 purified protein or LCA5-LC8 complex was injected at the concentration of 30 μM for LCA5 and 150 μM for LC8, with a flow rate of 500 μl/min immediately or after 60 min of incubation at 37 °C. For densitometric analysis, fractions were collected and 200 μl of samples were precipitated in 1.8 ml 96% ethanol at − 80 °C for 2 h. The samples were centrifugated for 30 min at 14,000 g, and dissolved in 15 μl of SDS sample buffer. 10 μl of each sample was run on Tricine-SDS gel. The calibration of the densitometry was performed on samples of known molar ratio of sLCA5 construct and LC8 (see the original gel used for calibration on Suplementary Fig. S16). Data evaluation was performed by using Origin 8 software and Fiji ImageJ software.

[3] = CD spectroscopy, helical content; type: physicochemical
Method: as §1, with “°C. […]” for “°C.”

LC8 [4] = target: T1, LC8 (Homo sapiens, UniProt Q96FJ2); assay: composition of complexes of LC8 binding partners (Supplementary Table S1); conditions: this paper's constructs
T1 construct: 6xHis (N); made in house; host or cells: E. coli BL21 (DE3) Rosetta
Excerpt: Number of LC8 Number of Ratio of LCA5
LC8 binding monomeric binding monomeric LC8 in monomers to LC8
Gene name sites partners in complex complex monomers
Supplementary Table S1. Stoichiometries of various LC8 binding partners in complex with LC8. Known LC8 binding partners according to literature data always form dimers upon LC8 binding. The stoichiometry is basically 1:1 in case of one LC8 binding site,where 2 monomeric partners are dimerized by binding one dimeric LC8. This ratio could increase up to 1:11 in case of ASCIZ where the dimeric ASCIZ possibly could bind 11 LC8 dimers in […]
occupied. According to our ITC and CD spectroscopy data, we proposed a very different binding model where the LCA5 forms likely […] alone and LC8 could interconnect this dimerized, moreover the possible binding sites are not fully occupied. […]
and 1:1 ratio case of single mutant LCA5 construct where one binding site presented and in case of wild type LCA5 where 2 binding sites presented, respectively.

LC8 [5] = target: T1, LC8; assay: isothermal titration calorimetry, sLCA5 fragments titrated with LC8; type: binding; conditions: PBS pH 7.4, 1 mM TCEP, 37 °C
Method: LC8 and MBP-fused LCA5 constructs were prepared in PBS supplemented with 1 mM TCEP. Before measurement, protein samples were dialyzed overnight in PBS pH 7.4 (Orange Scientific, OrDial D14 membrane). Peptides were diluted from stock with the buffer used for dialysis. The concentration of samples was determined based on absorbance at 280 nm in the case of proteins, and 205 nm for the peptide. Experiments were performed using MicroCal PEAQ-ITC (Malvern Panalytical), LCA5 peptides were measured at 25 °C, proteins were analyzed at 37 °C. Lebercilin peptide was injected into the cell 18 times 2 μl volumes, with 5 min timing between injections. In case of the protein, LCA5 was placed in the sample cell, and LC8 was injected during 37 injections, 1 μl each. The results were evaluated using MicroCal PEAQ-ITC Analysis Software.

LC8 [6] = target: T1, LC8; assay: SDS-PAGE densitometric analysis of gel filtration fractions (sLCA5:LC8 molar ratio); type: binding; conditions: SDS-PAGE densitometry; result in words
Method: as §2

T1 sequence (Q96FJ2 whole entry): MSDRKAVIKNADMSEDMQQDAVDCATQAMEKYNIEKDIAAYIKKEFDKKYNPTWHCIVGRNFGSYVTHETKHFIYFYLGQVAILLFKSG

B1: sLCA5-WT: truncated LCA5 96–430 fused to an N-terminal MBP tag (protein)
chain: DTDLVTKRILSARLLKINELQNEVSELQVKLAELLKENKSLKRLQYRQEKALNKFEDAENEISQLIFRHNNEITALKERLRKSQEKERATEKRVKDTESELFRTKFSLQKLKEISEARHLPERDDLAKKLVSAELKLDDTERRIKELSKNLELSTNSFQRQLLAERKRAYEAHDENKVLQKEVQRLYHKLKEKERELDIKNIYSNRLPKSSPNKEKELALRKNAACQSDFADLCTKGVQTMEDFKPEEYPLTPETIMCYENKWEEPGHLTLDLQSQKQDRHGEAGILNPIMEREEKFVTDEELHVVKQEVEKLEDEWEREELDKKQKEKASLLER
modifications: left off: MBP, N-terminal, kept | His6, C-terminal, kept
notes: truncated LCA5 96–430 fused to an N-terminal MBP tag
- measured diameter median of spherical complexes ([1]; 30 μM sLCA5 + 150 μM LC8, 37 °C 1 h, 20 mM Tris 70 mM NaCl pH 7.4): ~ 39 nm
- increase in size of complexes vs sLCA5-ΔCQS complexes ([1]; TEM diameters with LC8, significant by two sample t-test, p = 0.05): 20%
- interaction with LC8 (GST pull-down) (GST-fused LC8): can bind LC8
- melting temperature Tm (CD thermal denaturation): 41,1 °C
- increase in melting temperature on LC8 binding (CD thermal denaturation): ~ 5 °C
- estimated molar mass (gel filtration) ([2]; Superose 6 Increase 10/300, DPBS, 200 μM TCEP, void volume above 5000 kDa, listed as wild-type LCA5 construct): ~ 610 kDa
- void fraction (higher order oligomers) ([2]; gel filtration void volume, result in words): remarkable increase in the void volume fraction
- increase of the difference between incubated wild type and sLCA5-ΔCQS complexes ([2]; void fraction, prolonged incubation with LC8): ~ 3.5 fold
- stronger propensity to form higher order oligomers vs sLCA5-ΔCQS ([2]; void volume fraction size, with LC8 in fivefold molar excess): ~ 20%
- void fraction increment on incubation ([2]; with LC8, 60 min at 37 °C vs non-incubated complex): 324%
- molar ellipticity curve upon addition of LC8 ([3]; 20 °C, LC8 in fivefold molar excess, vs sLCA5-WT without LC8, result in words): remained the same
- helical structures preserved at higher temperatures ([3]; CD, BeStSel, 20 vs 40 °C, in the presence of LC8, LC8 and MBP-tag subtracted): 80%
- LC8 binding sites (LC8 [4]): 2
- − TΔS (LC8 [5]; ITC, MBP-fused sLCA5 titrated with LC8): 3.28 kcal/mol

B2: sLCA5-ΔCQS-ΔVQT: double mutant sLCA5, both LC8 binding motifs mutated (protein)
chain: B1 chain with C226A, Q227A, S228A, V238A, Q239A, T240A
modifications: left off: MBP, N-terminal, kept | His6, C-terminal, kept
- LC8 content of fraction (LC8 [6]): unable to bind LC8
- interaction with LC8 (GST pull-down) (GST-fused LC8): abolished the interaction with LC8
- melting temperature Tm (CD thermal denaturation): 40,7 °C
- increase in melting temperature on LC8 binding (CD thermal denaturation): no similar increase was observed
- measurable interaction with LC8 (ITC) (LC8 [5]; titrated with LC8, result in words): did not show any measurable interaction
